This is an account of results in paper PMC6063412, “Development of monoclonal anti-PDGF-CC antibodies as tools for investigating human tissue expression and for blocking PDGF-CC induced PDGFRα signalling in vivo” (PLoS ONE, 2018).

For assay [1], the target named is T1, recombinant human PDGF-CC core domain protein (activated PDGF-CC, growth factor domain) (human, UniProt Q9NRA1).
T1 construct: platelet-derived growth factor C, human, core domain (growth factor domain, GFD) released from the N-terminal CUB domain; also called hPCc; active PDGF-CC
Kind of assay: immunoblot; recombinant PDGF proteins run reduced and non-reduced, blotted and probed with murine mAb IgG. The note with it: both partners purified. Background: Immunoblotting shows a protein as a band on a membrane.

The target of assay [2] is T2, human latent full-length PDGF-CC (Homo sapiens, UniProt Q9NRA1).
T2 construct: platelet-derived growth factor C, human, latent full-length form with the CUB domain; also called hPCf; latent PDGF-CC
The assay is described as above. The note with it: both partners purified.

Assay [3] concerns the target T3, human PDGF-DD (Homo sapiens, UniProt Q9GZP0). Described as above. The note with it: both partners purified.
Assay [4] concerns the target T4, PDGF-AA (UniProt P04085).
T4 construct: platelet-derived growth factor A chain homodimer
Kind of assay: ELISA; 96-well plate coated with PDGF-AA, PDGF-BB, PDGF-CC or PDGF-DD; 6B3 applied (methods: hybridoma supernatant in dilution series), anti-mouse IgG-AP, absorbance at 405 nm. The note with it: one partner purified. A general note: In an ELISA, binding on a coated surface is turned into a signal by an enzyme label.

Assay [5] has as its target T5, PDGF-BB (UniProt P01127).
T5 construct: platelet-derived growth factor B chain homodimer
The description is as above. As to conditions: one partner purified.

Assay [6] has as its target T6, endogenous human PDGF-CC in A549 cells and placental tissue (Homo sapiens (endogenous, A549 and …, UniProt Q9NRA1)).
T6 construct: platelet-derived growth factor C, endogenous; source: endogenous, paraffin-embedded sections of the A549 cell line and human placental tissue
Kind of assay: immunostaining of cells or tissue; paraffin-embedded sections of A549 cells and human placenta, citric acid antigen retrieval, 6B3 at 1.5 μg/ml, anti-mouse-HRP and DAB; with or without 1 h pre-incubation of 6B3 with 6.7 X excess PDGF-CC His6 (10 μg/ml). As to conditions: one partner purified.

Assay [7] concerns the target T3, human PDGF-DD. The assay can be described thus: ELISA; data not shown; as the 6B3 ELISA on coated PDGF-AA, PDGF-BB, PDGF-CC and PDGF-DD, with other clones. The note with it: one partner purified.
Assay [8] deals with T4, PDGF-AA. Described as above. The note with it: one partner purified.
Assay [9] addresses T5, PDGF-BB. The assay is described as above. As to conditions: one partner purified.

T5 sequence (P01127 82-190): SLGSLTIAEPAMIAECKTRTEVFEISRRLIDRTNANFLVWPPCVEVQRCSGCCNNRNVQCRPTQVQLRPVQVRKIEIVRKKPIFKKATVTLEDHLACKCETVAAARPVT
T2 sequence (Q9NRA1 23-345): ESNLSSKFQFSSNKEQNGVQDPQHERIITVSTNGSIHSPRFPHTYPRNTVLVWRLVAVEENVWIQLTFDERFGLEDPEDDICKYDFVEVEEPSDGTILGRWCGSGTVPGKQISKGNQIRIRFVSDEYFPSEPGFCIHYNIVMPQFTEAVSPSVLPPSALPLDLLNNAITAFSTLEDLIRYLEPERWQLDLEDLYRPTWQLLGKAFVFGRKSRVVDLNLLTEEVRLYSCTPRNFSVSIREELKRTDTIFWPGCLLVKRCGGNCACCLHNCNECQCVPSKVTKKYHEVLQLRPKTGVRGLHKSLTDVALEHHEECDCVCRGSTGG
T6 sequence (Q9NRA1 23-345): as above
T1 sequence (Q9NRA1 230-345): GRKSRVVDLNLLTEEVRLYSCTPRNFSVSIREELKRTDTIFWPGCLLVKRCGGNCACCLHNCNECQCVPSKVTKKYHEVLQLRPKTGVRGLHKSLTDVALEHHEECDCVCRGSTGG

B1: monoclonal anti-PDGF-CC antibody 6B3 (antibody, V domains shown)
VH: QVQLQQSGVEVARPGASVKLSCKASGYTFRSYGITWVRQRTGQGLEWIGEIYPRSGKTYYNEKFKGKATLTADTSSSTVYMELRSLTSEDSAVYFCAREGYGYDGGYFDYWGQGTTLTVSS
VL: DIVMTQSPSSLAMSVGQKVTMSCKSSQSLLNSRNQKNYLAWYQQKPGQSPKLLVYFASTRESGVPDRFTGSGSGTDFTLTISSVQAEDLAVYYCQQHYSTPLTFGAGTKLELK
notes: VH CDR1 (Kabat combined with Chothia); VH CDR2; VH CDR3; VL CDR1 (Kabat combined with Chothia); VL CDR2; VL CDR3; Mouse IgG2a, kappa; Only the CDRs are printed; frameworks are not; also called mAb 6B3; clone 6B3; source: mouse hybridoma; culture supernatant, or IgG purified (HiTrap-Protein G)
Regarding B1, the binding result in [1] was “binds”; in assay [2], “binds”; in the assay with human PDGF-DD [3], “no binding”; with PDGF-AA [4], “no binding”; with PDGF-BB [5], “no binding”; in [6] it was “binds”.

B2: monoclonal anti-PDGF-CC antibody 19C7 (antibody, V domains shown)
VH: QVQLQQSGVEVARPGASVKLSCKASGYTFRSYGITWVRQRTGQGLEWIGEIYPRSGKTYYNEKFKGKATLTADTSSSTVYMELRSLTSEDSAVYFCAREGYGYDGGYFDYWGQGTTLTVSS
VL: DIVMTQSPSSLAMSVGQKVTMSCKSSQSLLNSRNQKNYLAWYQQKPGQSPKLLVYFASTRESGVPDRFTGSGSGTDFTLTISSVQAEDLAVYYCQQHYSTPLTFGAGTKLELK
notes: VH CDR1 (Kabat combined with Chothia); VH CDR2; VH CDR3; VL CDR1 (Kabat combined with Chothia); VL CDR2; VL CDR3; Mouse IgG2a, kappa; CDRs identical to those of 6B3; also called clone 19C7; source: mouse hybridoma; culture supernatant, or IgG purified (HiTrap-Protein G)
As to B2, the binding result with human PDGF-DD [7], with PDGF-AA [8] and with PDGF-BB [9] was “no binding” throughout.

B3: monoclonal anti-PDGF-CC antibody 11F5 (antibody, V domains shown)
VH: QVQLQQSGAELARPGASVKLSCKASGYIFISYGISWVKQRTGQGLEWIGEIYPRSGKTYYNEKFKDKAALTADKSSSIAYMELRSLTSEDSAVYFCAREGYGYDGGYFDYWGQGTILTVSS
VL: DIVMTQSPSSLAMSVGQKVAVSCKSSQSLLNSSNQKNYLAWYQQKPGQSPKLLVYFASTRDSGVPDRFTGSGSGTDFTLTISSVQAEDLAVYYCQQHYSTPLTFGAGTKLELK
notes: VH CDR1 (Kabat combined with Chothia); VH CDR2; VH CDR3; VL CDR1 (Kabat combined with Chothia); VL CDR2; VL CDR3; Mouse IgG2a, kappa; Only the CDRs are printed; frameworks are not; also called clone 11F5; source: mouse hybridoma; culture supernatant, or IgG purified (HiTrap-Protein G)
In the case of B3, the binding result with human PDGF-DD [7], with PDGF-AA [8] and with PDGF-BB [9] was “no binding” each time.
